The assay addresses recombinant human histone H4 (human) (UniProt P62805). As to the kind of experiment: cell-based or functional assay.

“Escherichia coli-expressed His-tagged N-terminal domain human PTX3 (18-178 amino acids), wild-type (from UniProt P26022 18-178)”: the aggregation stoichiometry (protein left after removal of the aggregate, SYPRO Ruby) (mol histone H4 per mol N-terminal domain) came out at 2.

The values above are taken from US20150299277A1, “AGENT FOR TREATING OR PREVENTING SYSTEMIC INFLAMMATORY RESPONSE SYNDROME” (THE UNIVERSITY OF TOKYO, priority 2012, published 2015).
